From US20030013150A1

Molecular target: plasminogen
Experiment: cell-based or functional assay

Bacteriophages which harbored K2S on gpIII (K2S-?) (from UniProt P00750 209-562)
fibrinogen-dependent enzymatic activity (amidolytic assay, plasminogen and S-2251): < 0.25 IU/ml
